# Test results as given in publication PMC12219675 (Nature Communications, 2025).
# Molecular target: the molecule itself
# Assay: thioflavin T fluorescence
protein,measurement,value
G175S PMEL CAF domain (residues 148-223) (domain or fragment) SFVYVWKTWGQYWQVLGGPVSGLSIGTSRAMLGTHTMEVTVYHRRGSRSYVPLAHSSSAFTITDQVPFSVSVSQLR,polymerisation (ThT fluorescence) relative to the wild type,~4 fold
